According to the supplement of paper PMC10567573:

B1: SEPHS2 (parent)
chain: KASGRFGLLQGTSAETSGGLLICL

Variants of: B1
Assay: protein stability index of a GFP-peptide fusion (GPS, HEK-293T) (PSI 1-6); higher = more stable
Settings: c terminus: a fixed tail appended
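Note: lentivirally expressed fusions sorted by FACS into six bins by GFP to DsRed ratio, PSI derived from sequencing read proportions per bin multiplied by bin number.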

| Variant | protein stability index |
| --- | --- |
| KASGRFGLLQGTSAETSGGKLICL [L20K] | 1.95 |
| KASGRFGLLQGTSAETSGGPLICL [L20P] | 2.39 |
| KASGRFGLLQGTSAETSGGNLICL [L20N] | 2.63 |
| KASGRFGLLQGTSAETSGGQLICL [L20Q] | 2.58 |
| KASGRFGLLQGTSAETSGGGLICL [L20G] | 1.96 |
| KASGRFGLLQGTSAETSGGHLICL [L20H] | 2.07 |
| KASGRFGLLQGTSAETSGGALICL [L20A] | 2.87 |
| KASGRFGLLQGTSAETSGGSLICL [L20S] | 1.94 |
| KASGRFGLLQGTSAETSGGELICL [L20E] | 1.82 |
| KASGRFGLLQGTSAETSGGLLITL [C23T] | 1.32 |
| KASGRFGLLQGTSAETSGGLLINL [C23N] | 1.79 |
| KASGRFGLLQGTSAETSGGLLISL [C23S] | 1.81 |
| KASGRFGLLQGTSAETSGGLLIHL [C23H] | 4.17 |
| KASGRFGLLQGTSAETSGGLLIQL [C23Q] | 1.73 |
| KASGRFGLLQGTSAETSGGLLIFL [C23F] | 3.71 |
| KASGRFGLLQGTSAETSGGLLIDL [C23D] | 2.02 |
| KASGRFGLLQGTSAETSGGLLIML [C23M] | 1.49 |
| KASGRFGLLQGTSAETSGGLLIPL [C23P] | 2.02 |
| KASGRFGLLQGTSAETSGGLLIKL [C23K] | 1.53 |
| KASGRFGLLQGTSAETSGGLLIAL [C23A] | 1.93 |
| KASGRFGLLQGTSAETSGGLLFCL [I22F] | 4.06 |
| KASGRFGLLQGTSAETSGGLLDCL [I22D] | 1.72 |
| KASGRFGLLQGTSAETSGGLLYCL [I22Y] | 1.71 |
| KASGRFGLLQGTSAETSGGLLACL [I22A] | 1.82 |

| Variant | protein stability index |
| --- | --- |
| KASGRFGLLQGTSAETSGGLLTCL [I22T] | 2.33 |
| KASGRFGLLQGTSAETSGGLLKCL [I22K] | 2.14 |
| KASGRFGLLQGTSAETSGGLLHCL [I22H] | 2.42 |
| KASGRFGLLQGTSAETSGGLLCCL [I22C] | 2.02 |
| KASGRFGLLQGTSAETSGGLLGCL [I22G] | 2.47 |
| KASGRFGLLQGTSAETSGGLLMCL [I22M] | 1.28 |
| KASGRFGLLQGTSAETSGGLLSCL [I22S] | 2.83 |
| KASGRFGLLQGTSAETSGGLLWCL [I22W] | 1.58 |
| KASGRFGLLQGTSAETSGGLLPCL [I22P] | 3.43 |
| KASGRFGLLQGTSAETSGGLLECL [I22E] | 2.64 |
| KASGRFGLLQSTSAETSGGLLICL [G11S] | 1.86 |
| KASGRFGLLQQTSAETSGGLLICL [G11Q] | 2.54 |
| KASGRFGLLQRTSAETSGGLLICL [G11R] | 3.92 |
| KASGRFGLLQKTSAETSGGLLICL [G11K] | 3.04 |
| KASGRFGLLQNTSAETSGGLLICL [G11N] | 2.76 |
| KASGRFGLLQHTSAETSGGLLICL [G11H] | 2.12 |
| KASGRFGLLQMTSAETSGGLLICL [G11M] | 2.37 |
| KASGRFGLLQTTSAETSGGLLICL [G11T] | 4.7 |
| KASGRFGLLEGTSAETSGGLLICL [Q10E] | 2.2 |
| KASGRFGLLMGTSAETSGGLLICL [Q10M] | 3.87 |
| KASGRFGLLSGTSAETSGGLLICL [Q10S] | 1.71 |
| KASGRFGLLPGTSAETSGGLLICL [Q10P] | 2.19 |
| KASGRFGLLVGTSAETSGGLLICL [Q10V] | 3.11 |
| KASGRFGLLIGTSAETSGGLLICL [Q10I] | 3.54 |

| Variant | protein stability index |
| --- | --- |
| KASGRFGLLNGTSAETSGGLLICL [Q10N] | 2.95 |
| KASGCFGLLQGTSAETSGGLLICL [R5C] | 2.27 |
| KASGKFGLLQGTSAETSGGLLICL [R5K] | 2.97 |
| KASGFFGLLQGTSAETSGGLLICL [R5F] | 3.72 |
| KASGTFGLLQGTSAETSGGLLICL [R5T] | 3.23 |
| KASGVFGLLQGTSAETSGGLLICL [R5V] | 3.1 |
| KASGDFGLLQGTSAETSGGLLICL [R5D] | 2.61 |
| KASGIFGLLQGTSAETSGGLLICL [R5I] | 3.36 |
| KASGLFGLLQGTSAETSGGLLICL [R5L] | 3.49 |
| KASGWFGLLQGTSAETSGGLLICL [R5W] | 1.66 |
| KASGHFGLLQGTSAETSGGLLICL [R5H] | 3.5 |
| KASGAFGLLQGTSAETSGGLLICL [R5A] | 5.51 |
| KASGRFGLLQGTSAETSPGLLICL [G18P] | 2.98 |
| KASGRFGLLQGTSAETSKGLLICL [G18K] | 2.4 |
| KASGRFGLLQGTSAETSNGLLICL [G18N] | 2.2 |
| KASGRFGLLQGTSAETSCGLLICL [G18C] | 3.15 |
| KASGRFGLLQGTSAETSQGLLICL [G18Q] | 2.5 |
| KASGRFGLLQGTSAETSDGLLICL [G18D] | 2.67 |
| KASGRFGLLQGTSAETSGGLLICR [L24R] | 2.55 |
| KASGRFGLLQGTSAETSGGLLICD [L24D] | 2.99 |
| KASGRFGLLQGTSAETSGGLLICN [L24N] | 2.11 |
| KASGRFGLLQGTSAETSGGLLICF [L24F] | 4.05 |
| KASGRFGLLQGTSAETSGGLLICH [L24H] | 1.89 |
| KASGRFGLLQGTSAETSGGLLICT [L24T] | 2.43 |

| Variant | protein stability index |
| --- | --- |
| KASGRFGLLQGTSAETSGGLLICS [L24S] | 1.9 |
| KASGRFGLLQGTSAETSGGLLICP [L24P] | 2.8 |
| KASGRFGLLQGTSAETSGGLLICK [L24K] | 2.67 |
| KASGRFGLLQGTSAETSGGLLICY [L24Y] | 2.62 |
| KASGRFGLLQGTSAETSGGLLICA [L24A] | 1.24 |
| KASGRFGLLQGTSAETSGGLLICE [L24E] | 3.13 |
| KASGRFGLLQGTVAETSGGLLICL [S13V] | 4.84 |
| KASGRFGLLQGTQAETSGGLLICL [S13Q] | 1.5 |
| KASGRFGLLQGTMAETSGGLLICL [S13M] | 2.24 |
| KASGRFGLLQGTDAETSGGLLICL [S13D] | 2.01 |
| KASGRFGLLQGTKAETSGGLLICL [S13K] | 2.7 |
| KASGRFGLLQGTSAEISGGLLICL [T16I] | 2.5 |
| KASGRFGLLQGTSAEMSGGLLICL [T16M] | 2.06 |
| KASGRFGLLQGTSAEFSGGLLICL [T16F] | 3.47 |
| KASGRFGLLQGTSAEHSGGLLICL [T16H] | 1.88 |
| KASGRFGLLQGTSAERSGGLLICL [T16R] | 2.58 |
| KASGRFGLLQGTSAESSGGLLICL [T16S] | 1.61 |
| KASGRFGLLQGTSAETSGILLICL [G19I] | 2.54 |
| KASGRFGLLQGTSAETSGLLLICL [G19L] | 2.19 |
| KASGRFGLLQGTSAETSGTLLICL [G19T] | 1.74 |
| KASGRFGLLQGTSAETSGMLLICL [G19M] | 2.76 |
| KASGRFGLLQGTSAETSGYLLICL [G19Y] | 1.89 |
